Measurements reported in PMC9795039, “Kindlin2 enables EphB/ephrinB bi-directional signaling to support vascular development” (Life Science Alliance, 2022).

T1: his-tagged human full-length kindlin2 (human, UniProt Q96AC1 1-680)
T1 construct: human full-length kindlin2 in gWIZ vector; also called purified kindlin2; recombinant kindlin2; source: Expi293F cells, purified
T1 sequence (looked up): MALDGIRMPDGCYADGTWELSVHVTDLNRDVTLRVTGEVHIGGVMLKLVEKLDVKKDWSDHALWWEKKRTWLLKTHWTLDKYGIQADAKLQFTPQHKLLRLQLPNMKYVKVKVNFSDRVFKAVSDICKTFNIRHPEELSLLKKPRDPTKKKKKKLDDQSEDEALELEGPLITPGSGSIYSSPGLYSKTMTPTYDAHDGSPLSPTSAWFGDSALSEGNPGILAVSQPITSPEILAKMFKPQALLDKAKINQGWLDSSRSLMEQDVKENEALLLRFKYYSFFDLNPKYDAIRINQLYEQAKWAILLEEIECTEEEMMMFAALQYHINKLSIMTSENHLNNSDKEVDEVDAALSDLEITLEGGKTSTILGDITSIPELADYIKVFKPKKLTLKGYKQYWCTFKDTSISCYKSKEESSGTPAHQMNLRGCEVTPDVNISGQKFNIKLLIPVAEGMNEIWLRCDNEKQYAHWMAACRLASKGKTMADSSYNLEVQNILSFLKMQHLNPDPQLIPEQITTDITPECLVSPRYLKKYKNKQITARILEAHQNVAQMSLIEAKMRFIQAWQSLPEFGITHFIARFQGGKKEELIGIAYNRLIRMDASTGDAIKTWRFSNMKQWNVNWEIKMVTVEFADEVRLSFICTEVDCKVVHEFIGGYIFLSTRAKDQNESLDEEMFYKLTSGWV

B1: his/Avi-tagged cytoplasmic tail of ephrinB2 WT (domain or fragment, UniProt P52799 251-333, looked up)
chain: KYRRRHRKHSPQHTTTLSLSTLATPKRSGNNNGSEPSDIIIPLRTADSVFCPHYEKVSGDYGHPVYIVQEMPPQSPANIYYKV
modifications: biotinylated
notes: ephrinB2 cytoplasmic tail; Vector (his/Avi-tagged in pET15) and purification after Pfaff et al, 1998; The forward primer printed for the 4A construct reads KYRRR after the HindIII site, which may mark the start of the tail; also called ephrinB2 WT tail; ephrinB2 cytoplasmic tail; source: Escherichia coli (DE3), purified
B2: his/Avi-tagged cytoplasmic tail of ephrinB2 S325A (domain or fragment, UniProt P52799 251-333, looked up)
chain: KYRRRHRKHSPQHTTTLSLSTLATPKRSGNNNGSEPSDIIIPLRTADSVFCPHYEKVSGDYGHPVYIVQEMPPQAPANIYYKV
modifications: biotinylated
notes: ephrinB2 cytoplasmic tail with S325A; source: Escherichia coli (DE3), purified
B3: his/Avi-tagged cytoplasmic tail of ephrinB2 N328A (domain or fragment, UniProt P52799 251-333, looked up)
chain: KYRRRHRKHSPQHTTTLSLSTLATPKRSGNNNGSEPSDIIIPLRTADSVFCPHYEKVSGDYGHPVYIVQEMPPQSPAAIYYKV
modifications: biotinylated
notes: ephrinB2 cytoplasmic tail with N328A; source: Escherichia coli (DE3), purified
B4: his/Avi-tagged cytoplasmic tail of ephrinB2 Y331A (domain or fragment, UniProt P52799 251-333, looked up)
chain: KYRRRHRKHSPQHTTTLSLSTLATPKRSGNNNGSEPSDIIIPLRTADSVFCPHYEKVSGDYGHPVYIVQEMPPQSPANIYAKV
modifications: biotinylated
notes: ephrinB2 cytoplasmic tail with Y331A; source: Escherichia coli (DE3), purified
B5: his/Avi-tagged cytoplasmic tail of ephrinB2 2A (domain or fragment, UniProt P52799 251-333, looked up)
chain: KYRRRHRKHSPQHTTTLSLSTLATPKRSGNNNGSEPSDIIIPLRTADSVFCPHYEKVSGDYGHPVYIVQEMPPQSPAAIYAKV
modifications: biotinylated
notes: ephrinB2 cytoplasmic tail with N328A and Y331A; also called double point mutation (N328A and Y331A); source: Escherichia coli (DE3), purified

Each binder was assayed against T1, his-tagged human full-length kindlin2 (assay: pull-down; in vitro binding assay: purified kindlin2 mixed with purified cytoplasmic tails immobilised on NeutrAvidin beads; Western blot with anti-kindlin2 antibody). Conditions: both partners purified.

Binding result, binds:
B1
B2
B3
B4
B5
